In patent US20140096274A1 (published 2014):
Positions count from the first letter of the chain named.

T1: murine RANKL heterodimeric variant mD2 (mouse Dimer 2) (mouse, UniProt O35235 160-316; O35235 160-316)
T1 construct: range 160-316; Heterodimer of monomer A (His-tagged) and monomer B, co-expressed in E. coli; also called RANKL dimer 2; dRANKL D2; not shown: hexahistidine-tag fused to monomer A
T1 sequence (looked up) 1: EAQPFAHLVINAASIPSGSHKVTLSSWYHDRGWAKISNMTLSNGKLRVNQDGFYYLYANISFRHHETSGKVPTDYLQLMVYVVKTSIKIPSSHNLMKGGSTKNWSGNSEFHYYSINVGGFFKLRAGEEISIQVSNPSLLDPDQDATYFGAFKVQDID
T1 sequence (looked up) 2: T1 sequence (looked up) 1 with F53Y, S61C, K97D, Y112F, F120Y

T2: murine RANKL heterodimeric variant mD1 (mouse Dimer 1) (mouse, UniProt O35235 160-316; O35235 160-316)
T2 construct: range 160-316; Heterodimer of monomer A (His-tagged) and monomer B, co-expressed in E. coli; also called RANKL dimer 1; RANK-L Dimer 1; not shown: hexahistidine-tag fused to monomer A
T2 sequence (looked up) 1: T1 sequence (looked up) 1 with V9T, K35D, K70S
T2 sequence (looked up) 2: T1 sequence (looked up) 1 with V9T, F53Y, S61C, K70S, K97D, Y112F, F120Y

B1: trimeric human RANKL WT (E. coli produced, R&D Systems) (ligand, UniProt O14788 140-317, looked up)
chain: IRAEKAMVDGSWLDLAKRSKLEAQPFAHLTINATDIPSGSHKVSLSSWYHDRGWAKISNMTFSNGKLIVNQDGFYYLYANICFRHHETSGDLATEYLQLMVYVTKTSIKIPSSHTLMKGGSTKYWSGNSEFHFYSINVGGFFKLRSGEEISIEVSNPSLLDPDQDATYFGAFKVRDID
notes: Bought protein; also called hWT
B2: human RANK-Fc (Fc fusion, UniProt Q9Y6Q6 30-212, looked up)
chain: IAPPCTSEKHYEHLGRCCNKCEPGKYMSSKCTTTSDSVCLPCGPDEYLDSWNEEDKCLLHKVCDTGKALVAVVAGNSTTPRRCACTAGYHWSQDCECCRRNTECAPGLGAQHPLQLNKDTVCKPCLAGYFSDAFSSTDKCRPWTNCTFLGKRVEHHGTEKSDAVCSSSLPARKPPNEPHVYLP
notes: also called hRANK-Fc; hRANK-FC; not shown: Fc part of the bought fusion; not described
B3: murine RANK-Fc (Fc fusion, mouse, UniProt O35305 31-214, looked up)
chain: VTPPCTQERHYEHLGRCCSRCEPGKYLSSKCTPTSDSVCLPCGPDEYLDTWNEEDKCLLHKVCDAGKALVAVDPGNHTAPRRCACTAGYHWNSDCECCRRNTECAPGFGAQHPLQLNKDTVCTPCLLGFFSDVFSSTDKCKPWTNCTLLGKLEAHQGTTESDVVCSSSMTLRRPPKEAQAYLPS
notes: also called mRANK-Fc; mRANK-FC; not shown: Fc part of the bought fusion; not described
B4: human RANKL heterodimeric variant hD1-3 (ligand)
chain 1: MGSSHHHHHHSQDPEAQPFAHLTINATDIPSGSHKVSLSSWYHDRGWADISNMTFSNGKLIVNQDGFYYLYANISFRHHETSGDLATEYLQLMVYVTKTSEKIPSSHTLMKGGSTKYWSGNSEFHYYSINVGGFFKLRSGEEISIEVSNPSLLDPDQDATYFGAFKVRDID
chain 2: MEAQPFAHLTINATDIPSGSHKVSLSSWYHDRGWAKISNMTFSNGKLIVNQDGYYYLYANICFRHHETSGDLATEYLQLMVYVTKTSEKIPSSHTLMDGGSTKYWSGNSEFHFYSINVGGYFKLRSGEEISIEVSNPSLLDPDQDATYFGAFKVRDID
notes: Heterodimer expressed in E. coli BLR (DE3); copies: 1 + 1
B5: human RANKL heterodimeric variant hD2-3 (ligand)
chain 1: B4 chain 1 with T23V, D49K, D84K
chain 2: B4 chain 2 with T10V, D71K
notes: Heterodimer expressed in E. coli BLR (DE3); also called hRANKL D2.3; copies: 1 + 1

Columns and labels:
[1] = target: B2; experiment: SPR (Biacore T100) single cycle kinetics, hRANK-Fc captured on protein A at 200 RU, 1:1 fit
Protocol: (§1) FIG. 35. Binding of dimeric human RANKL variants and human RANKL WT towards murine RANK at 37° C. (left) or human RANK (right) receptor. Receptors were captured at a level of 200 RU using a Protein A (Sigma) modified surface of a CM5 chip (Biacore GE Lifesciences). Receptor binding curves of purified human hD1.3 and hD2.3 variants and human RANKL WT (E. coli produced, R&D systems) were recorded in real time using the single cycle kinetics method (Biacore) using a Biacore T100 (Biacore, GE Lifescience). Ligands were injected in 5 consecutive injection from 1 nM to 100 nM. After subtracting the signal from the reference channel and buffer injections the resulting binding curves were fitted to a 1:1 interaction model using the BiaEvaluation software (Biacore GE Lifescience). Flow rate was 50 ul/min and protein A surface was regenerated using 10 mM Glycine pH 2 solution, murine RANK-Fc and human RANK-Fc were obtained from R&D systems. Running buffer was HBS-EP+ (Biacore GE Lifescience).

[2] = target: B3; experiment: SPR (Biacore T100) single cycle kinetics, mRANK-Fc captured on protein A at 200 RU, 1:1 fit
Protocol: as §1

[3] = target: T1, murine RANKL heterodimeric variant mD2 …; experiment: SPR (Biacore), hRANK-Fc captured on protein A at 40 RU, 37 C, 1:1 Langmuir fit
Protocol: (§2) A Biacore experiment was performed to determine the kinetics of binding of the dimeric variants. hRANK-FC (Sigma) was captured in flow cell 2 at a level of 40 RU by a 60 s injection pulse of a 0.7 ug/ml hRANK-FC solution at a flow rate of 50 uL/min. Flow cell 1 served as reference cell. Subsequently, serial dilutions ranging from 562 nM to 100 pM of murine RANKL wt (R&D systems), or the purified RANKL dimers mD1 and mD2 were injected over both flow cells at 50 uL/min and 37° C. Binding was measured in real time. After each cycle the protein A surface was regenerated with a 30 s pulse of 10 mM Glycine pH 1.5. Kd values were calculated by fitting the data to a langmuir 1:1 binding model using the BIAevaluation software as described before (30). (Table 6 and FIG. 6).
(§3) Kinetic binding parameters were measured in real time using SPR. RANKL dimer binding curves were recorded using concentrations ranging from 100 pM to 562 nM dimer 1 (mD1) or dimer 2 (mD2), trimeric murine wild-type RANKL was used as a control. Measurements were performed at 37° C. The dissociation constants (KD) were determined by fitting the data to a Langmuir 1:1 interaction model. […] The binding off-rate constant (koff) of wild-type murine RANKL was ˜2 to 6 fold slower than for dimer 1 and dimer 2.

[4] = target: T2, murine RANKL heterodimeric variant mD1 …; experiment: as above
Protocol: as §2, §3

[5] = target: T1, murine RANKL heterodimeric variant mD2 …; experiment: SPR single cycle kinetics, hRANK-Fc captured at 20-40 RU, 1:1 fit
Protocol: (§4) Considering the high similarity between human RANKL and murine RANKL (>88%) the murine dimers were also tested for hRANK binding. Binding to hRANK-Fc and mRANK-Fc (both from R&D Systems) was recorded for five consecutive concentrations of murine flag RANKL WT, D1 (mD1) or D2 (mD2) (˜0.3-15 nM) using SPR with a single cycle kinetics based approach. The capture level of mRANK-Fc and hRANK-Fc was low (20-40 RU) in order to ensure 1:1 binding. Both WT and the D1 and D2 dimeric variants bound with high affinity towards the mRANK receptor and to the human RANK receptor (FIG. 16: Table 8).

[6] = target: T2, murine RANKL heterodimeric variant mD1 …; experiment: as above
Protocol: as §4

[7] = target: T1, murine RANKL heterodimeric variant mD2 …; experiment: SPR, mRANK-Fc captured at low density on C1 chip, 1:1 Langmuir fit, mean of three experiments
Protocol: (§5) SPR measurements were performed using ˜1500-2000 RU of captured mRANK-Fc on the surface of a CM5 sensor chip (FIGS. 15B and C). This is a density that results in a mean ratio of RANKL:RANK of approx 1:3 (52). […] (Table 5, below) In contrast, the ratio of binding of RANKL variants mD1 and mD2 to mRANK-Fc seems hardly to be affected by receptor density (Table 5). The values obtained after injecting 500 nM of the dimeric variants correlate to binding of 1.5 monomeric subunits by mD1 and 1.6 monomeric subunits by mD2.
(§6) Kinetic binding parameters were also measured for mD1 and mD2 binding to mRANK-FC in real time using SPR using murine RANKL-WT as a control (FIG. 15; table 8). RANKL dimer binding curves to mRANK-Fc captured at low density on the surface of a C1 sensorchip were recorded using concentrations ranging from 100 pM to 562 nM. At very low receptor density, RANKL proteins bind only one receptor molecule, allowing the data to be fitted to a Langmuir 1:1 interaction model (29). RANKL WT needed a very low density (<20 resonance units (RU)) to come close to a 1:1 ratio (FIG. 3A). […] Maximum binding of 5.5 RU is reached, which is slightly lower than the expected Rₘₐₓ value of 6.8 RU for a 1:1 ratio, but definitely larger than 3.4 RU, the Rₘₐₓ value expected for a binding ratio of 2 molecules of RANK per flag-mRANKL WT trimer. Similar to mRANKL WT, binding of RANKL mD1 or mD2 to mRANK-Fc results in slightly lower Rₘₐₓ values than expected for a 1:1 binding ratio: 24 RU D1 compared to 26 RU, and 20 RU D2 compared to 23 RU (FIG. 15A). These binding ratio's could be reached with mD1 and mD2 at densities of mRANK-Fc of <50 RU. The approximate 1:1 binding of RANKL proteins to mRANK-Fc allows fitting the data to the 1:1 Langmuir binding model.

[8] = target: T2, murine RANKL heterodimeric variant mD1 …; experiment: as above
Protocol: as §5, §6

[9] = target: T1, murine RANKL heterodimeric variant mD2 …; experiment: SPR single cycle kinetics, mRANK-Fc captured at 20-40 RU, 1:1 fit
Protocol: as §4

[10] = target: T2, murine RANKL heterodimeric variant mD1 …; experiment: as above
Protocol: as §4

Binder: B1
Kd [1]: 267 pM
koff [1]: 0.00023 s⁻¹
kon [1]: 861000 M⁻¹ s⁻¹
Kd [2]: 136 pM
koff [2]: 0.000142 s⁻¹
kon [2]: 1.04e+06 M⁻¹ s⁻¹

Binder: B2
Ka [3]: 1.8e+10 M⁻¹
Kd [3]: 61.9 pM
koff [3]: 0.000554 s⁻¹
kon [3]: 8.55e+06 M⁻¹ s⁻¹
Ka [4]: 2.33e+10 M⁻¹
Kd [4]: 44.6 pM
koff [4]: 0.000197 s⁻¹
kon [4]: 4.52e+06 M⁻¹ s⁻¹
Kd [5]: 25.9 pM
koff [5]: 0.000173 s⁻¹
kon [5]: 6.69e+06 M⁻¹ s⁻¹
Kd [6]: 129 pM
koff [6]: 0.00108 s⁻¹
kon [6]: 8.8e+06 M⁻¹ s⁻¹

Binder: B3
Ka [7]: 2.1e+11 M⁻¹
Kd [7]: 10 pM
koff [7]: 4.3e-05 s⁻¹
kon [7]: 4.9e+06 M⁻¹ s⁻¹
Ka [8]: 2.7e+10 M⁻¹
Kd [8]: 146 pM
koff [8]: 0.00015 s⁻¹
kon [8]: 5.8e+06 M⁻¹ s⁻¹
Kd [9]: 8.55 pM
koff [9]: 5.76e-05 s⁻¹
kon [9]: 6.73e+06 M⁻¹ s⁻¹
Kd [10]: 43.9 pM
koff [10]: 0.000247 s⁻¹
kon [10]: 5.93e+06 M⁻¹ s⁻¹

Binder: B4
Kd [1]: 345 pM
koff [1]: 0.000275 s⁻¹
kon [1]: 798000 M⁻¹ s⁻¹
Kd [2]: 211 pM
koff [2]: 0.00019 s⁻¹
kon [2]: 899000 M⁻¹ s⁻¹

Binder: B5
Kd [1]: 76.6 pM
koff [1]: 8.87e-05 s⁻¹
kon [1]: 1.16e+06 M⁻¹ s⁻¹
Kd [2]: 50.4 pM
koff [2]: 8.32e-05 s⁻¹
kon [2]: 1.65e+06 M⁻¹ s⁻¹
